Consider one substance from US20230059341A1.

One may read the Kd as the equilibrium constant for the complex coming apart.

This experiment concerns the target Neonatal Fc Receptor (FcRn) (UniProt P55899). As to the kind of experiment: FcRn binding assay, BIACORE (SPR).

Neonatal Fc Receptor (FcRn), sequence (P55899 24-297 limits assumed, chain 1 of 2): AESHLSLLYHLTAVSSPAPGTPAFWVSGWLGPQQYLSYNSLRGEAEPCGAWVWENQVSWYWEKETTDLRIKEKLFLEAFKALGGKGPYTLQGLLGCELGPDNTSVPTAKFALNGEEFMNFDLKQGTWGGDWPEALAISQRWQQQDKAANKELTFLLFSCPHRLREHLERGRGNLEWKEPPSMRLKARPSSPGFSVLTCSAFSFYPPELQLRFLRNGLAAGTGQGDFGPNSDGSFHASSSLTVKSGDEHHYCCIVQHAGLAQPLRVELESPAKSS
Neonatal Fc Receptor (FcRn), sequence (P61769 21-119 limits assumed, chain 2 of 2, further chain): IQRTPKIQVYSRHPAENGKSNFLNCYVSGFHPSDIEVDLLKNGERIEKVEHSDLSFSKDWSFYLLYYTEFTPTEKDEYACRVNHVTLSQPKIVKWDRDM

For the substance “Dostarlimab, base degraded, pH 9.0, 40° C., 1 week (antibody)”, the Kd amounted to 2340 nM.
